Data: patent US9931401B2, “Combination comprising anti-fibroblast growth factor receptor 2 (FGFR2) antibody and a tyrosine kinase inhibitor” (Daiichi Sankyo Company, Limited, priority 2013, dated 2018)

Assays:
human FGFR2 IIIb = target: T1, human FGFR2 IIIb (Homo sapiens, UniProt P21802); experiment: Elk1 luciferase reporter gene assay, FGFR2 IIIb-expressing 293α cells, ligand FGF7; type: cell-based; conditions: FGF7 10 ng/ml; for ligand FGF7 dependent reporter activation in the FGFR2 IIIb-expressing cells: antibody preincubated 1 hour, 6 hours; for ligand FGF7 dependent reporter activation in FGFR2-expressing HEK293 reporter cells (screening): hybridoma culture supernatant diluted 5-fold
T1 construct: expressed in transfected cells; host or cells: 293α cells (HEK293 stably transfected with integrin αv and β3)
T1 sequence (P21802 22-822 isoform P21802-3 limits assumed): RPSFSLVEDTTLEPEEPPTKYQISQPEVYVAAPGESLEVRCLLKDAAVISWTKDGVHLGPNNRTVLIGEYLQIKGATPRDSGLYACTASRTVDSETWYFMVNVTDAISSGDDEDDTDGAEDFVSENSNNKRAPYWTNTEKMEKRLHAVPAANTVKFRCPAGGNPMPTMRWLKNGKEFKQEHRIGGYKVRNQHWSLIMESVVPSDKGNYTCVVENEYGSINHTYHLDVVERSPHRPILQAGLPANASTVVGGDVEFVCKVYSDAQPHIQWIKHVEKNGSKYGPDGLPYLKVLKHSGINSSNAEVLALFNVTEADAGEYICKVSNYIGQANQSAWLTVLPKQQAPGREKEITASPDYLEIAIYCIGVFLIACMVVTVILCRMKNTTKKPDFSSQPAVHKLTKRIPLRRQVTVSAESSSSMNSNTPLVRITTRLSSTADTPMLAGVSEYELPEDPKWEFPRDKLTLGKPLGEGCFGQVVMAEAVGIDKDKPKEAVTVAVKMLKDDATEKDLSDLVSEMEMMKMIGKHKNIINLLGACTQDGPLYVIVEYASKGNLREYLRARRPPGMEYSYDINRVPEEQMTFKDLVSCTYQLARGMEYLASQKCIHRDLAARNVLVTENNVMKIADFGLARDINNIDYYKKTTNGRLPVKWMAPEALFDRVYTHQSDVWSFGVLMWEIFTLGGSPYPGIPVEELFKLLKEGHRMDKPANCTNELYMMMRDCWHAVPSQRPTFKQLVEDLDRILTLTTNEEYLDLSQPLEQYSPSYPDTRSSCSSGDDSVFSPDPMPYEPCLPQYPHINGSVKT
Method: In order to evaluate the signal-neutralizing effect of the anti-FGFR2 antibody produced by each obtained hybridoma, an Elk1 luciferase reporter gene assay system for detecting ERK (extracellular signal-regulated kinase) activation induced by FGFR2 activation via ligand FGF7 stimulation was constructed by a method shown below and used in the evaluation of the obtained antibody for its effect.
The Elk1 luciferase reporter gene assay was carried out using each hybridoma culture supernatant selected in Example 1)-5. A cell line 293α, which was HEK293 cells stably transfected with integrin αv and integrin β3 expression vectors, was transiently cotransfected with pcDNA-DEST40-FGFR2 IIIb or pcDNA-DEST40, pFA2-Elk1 (manufactured by Stratagene Corp.), pFR-Luc2CP, and pGL4.74[hRluc/TK] (manufactured by Promega Corp.) according to transfection procedures using Lipofectamine 2000 (manufactured by Invitrogen Corp.), inoculated to a white 96-well cell culture plate (manufactured by Corning Inc.), and cultured overnight at 37° C. under 5% CO2 conditions. On the next day, the culture supernatant was removed, and the hybridoma culture supernatant diluted 5-fold with DMEM containing 5% FBS was added at a concentration of 50 μl/well to the plate. After culture at 37° C. for 1 hour under 5% CO2 conditions, a ligand human FGF7 (manufactured by R&D systems, Inc.) was added at a final concentration of 10 ng/ml to each well. After incubation for 6 hours, cell lysates were prepared and assayed for firefly luciferase activity (specific signal) and Renilla luciferase activity (signal for normalization) using Dual-luciferase reporter assay system (manufactured by Promega Corp.). The firefly/Renilla ratio was calculated to normalize data on each well.
In order to evaluate the signal-neutralizing effects of the obtained antibodies by the Elk1 luciferase reporter gene assay, 293α cells were cotransfected with pcDNA-DEST40-FGFR2 IIIb or pcDNA-DEST40-FGFR2 IIIc constructed in Example 1)-3-1, pFA2-Elk1 (manufactured by Stratagene Corp.), pFR-Luc2CP, and pGL4.74[hRluc/TK] (manufactured by Promega Corp.) by the method shown in Example 1)-6-2, and cultured overnight at 37° C. under 5% CO2 conditions. On the next day, the culture supernatant was removed, and the cells were then preincubated for 1 hour with the rat FR2-10, FR2-13, or FR2-14 antibody diluted with DMEM containing 2% FBS. Subsequently, a ligand human FGF7 (manufactured by R&D systems, Inc.) or human FGF9 (manufactured by PeproTech Inc.) was added at a final concentration of 10 ng/ml to each well. After incubation for 6 hours, firefly luciferase activity (specific signal) and Renilla luciferase activity (signal for normalization) were assayed using Dual-Glo Luciferase Assay System (manufactured by Promega Corp.). The firefly/Renilla ratio was calculated to normalize data on each well.
In order to evaluate the signal-neutralizing effects of the obtained antibodies by the Elk1 luciferase reporter gene assay, 293α cells were transfected with pcDNA-DEST40-FGFR2 IIIb or pcDNA-DEST40-FGFR2 IIIc constructed in Example 1)-3-1 by the method shown in Example 1)-6-2, and cultured overnight at 37° C. under 5% CO2 conditions. On the next day, the culture supernatant was removed, and the cells were then preincubated for 1 hour with the cFR2-10, cFR2-13, or cFR2-14 antibody (final concentration: 0.05 to 5 μg/ml) diluted with DMEM containing 2% FBS. Subsequently, a ligand human FGF7 (manufactured by R&D systems, Inc.) or human FGF9 (manufactured by PeproTech Inc.) was added at a final concentration of 10 ng/ml to each well. After incubation for 6 hours, cell lysates were prepared and assayed for firefly luciferase activity (specific signal) and Renilla luciferase activity (signal for normalization) using Dual-luciferase reporter assay system (manufactured by Promega Corp.). The firefly/Renilla ratio was calculated to normalize data on each well. […]

human FGFR2 = target: T2, human FGFR2 (Homo sapiens, UniProt P21802); experiment: Flow cytometry, selective binding to human FGFR expression vector-transfected HEK293T cells; conditions: hybridoma culture supernatant, FGFR1 IIIc, FGFR2 IIIb, FGFR3 IIIb, FGFR4 transfectants
T2 construct: expressed in transfected cells; host or cells: HEK293T cells
T2 sequence (P21802 22-822 isoform P21802-3): as the sequence (P21802 22-822 isoform P21802-3 limits assumed) above
Method: HEK293T cells were inoculated at a density of 5×10^4 cells/cm^2 to a 225-cm^2 flask (manufactured by Sumitomo Bakelite Co., Ltd.) and cultured overnight at 37° C. under 5% CO2 conditions in a DMEM medium containing 10% FBS. On the next day, the pcDNA-DEST40-FGFR2 IIIb IgD1-deletion mutant deficient in the N-terminal IgD1 domain or a control pcDNA-DEST40 was transfected to the HEK293T cells using Lipofectamine 2000, and the cells were further cultured overnight at 37° C. under 5% CO2 conditions. On the next day, the expression vector-transfected HEK293T cells were treated with TrypLE Express (manufactured by Life Technologies Corp.), washed with DMEM containing 10% FBS, and then suspended in PBS containing 5% FBS. The obtained cell suspension was used in flow cytometry analysis.
cDNAs encoding a human FGFR1 IIIc variant protein (isoform 1: NP_075598), a human FGFR3 IIIb variant protein (isoform 3: NP_001156685), a human FGFR3 IIIc variant protein (isoform 1: NP_000133), and a human FGFR4 protein (isoform 1: NP_002002) were cloned into pcDNA-DEST40 vectors to construct vectors pcDNA-DEST40-FGFR1 IIIc, pcDNA-DEST40-FGFR3 IIIb, pcDNA-DEST40-FGFR3 IIIc, and pcDNA-DEST40-FGFR4 for expression of each variant protein, respectively.
Each human FGFR expression vector constructed in Examples 1)-3-1 and 2)-1-1 was transfected to HEK293T cells by the method shown in Example 1)-5-1. The cell suspension was centrifuged to remove the supernatant. Then, these various human FGFR expression vector-transfected HEK293T cells and the pcDNA-DEST40-transfected HEK293T cells were separately suspended by the addition of the hybridoma culture supernatant containing the FR2-10, FR2-13, or FR2-14 antibody and left standing at 4° C. for 1 hour. […] The data was analyzed using Flowjo (manufactured by Tree Star Inc.). After removal of 7-aminoactinomycin D-positive dead cells by gating, the FITC fluorescence intensity of live cells was plotted to a histogram to calculate average fluorescence intensity (MFI).

ligand FGF7 dependent reporter activation in the FGFR2 IIIb-expressing cells (human FGFR2 IIIb) | Molecule | ligand FGF7 dependent reporter activation in FGFR2-expressing HEK293 reporter cells (screening) (human FGFR2 IIIb) | selective binding activity against human FGFR2 (human FGFR2)
inhibited | FR2-10: anti-human FGFR2 rat monoclonal antibody obtained by the method described in Example 1; VH SEQ ID NO: 12, VL SEQ ID NO: 21 (antibody, listed as Rattus norvegicus, V domains shown) VH: EVQLVESGGGLVQPGRSLKLSCVASGFRFNDFWMTWIRQAPGKGLEWVASITYTGDNTYYAGSVKGRITISRDNAKSTLYLQMNSLRSEDTATYYCTRDDYGGYSPYYMDAWGQGTSVTVSS VL: DIQMTQSPSSLSAFLGDRVTITCRASQDIGNYLRWFQQKPGKSPRLMIYGATNLANGVPSRFSGSRSGSDYSLTINNLESEDMAIYYCLKHNEYPFTFGSGTKLEIKRA | reduced ligand FGF7 dependent reporter activation to a ligand-free level | selectively bind to human FGFR2 IIIb
inhibited | FR2-13: anti-human FGFR2 rat monoclonal antibody obtained by the method described in Example 1; VH SEQ ID NO: 14, VL SEQ ID NO: 24 (antibody, listed as Rattus norvegicus, V domains shown) VH: QVKLLQSGAELVKPGASVKLSCKTSGFTFSTSYMSWLKQVPGPSIEWIGWIYAGDGGTKYNQKFKGKATLTVDKSSSTAYMDLSSLTSEDAAVYFCATDGYGDWFAYWGQGTLVTVSS VL: DIQMTQSPASLSASLGETVTIECRASEDIYSNLAWYQQKPGNSPQLLIYDANILADGVPSRFSGSGSGTQYSLKINSLQSEDVASYFCQQYNNYPPFTFGVGTKLELKRA | reduced ligand FGF7 dependent reporter activation to a ligand-free level | selectively bind to both human FGFR2 IIIb and FGFR2 IIIc
inhibited | FR2-14: anti-human FGFR2 rat monoclonal antibody obtained by the method described in Example 1; VH SEQ ID NO: 16, VL SEQ ID NO: 26 (antibody, listed as Rattus norvegicus, V domains shown) VH: QVKLLQSGAELVKPGASVKLSCKTSGFTFSTSYMSWLKQVPGPSTEWIGWIYAGDGGTKYNQKFKGKATLTVDKFSSTAYMDLSSLTSEDAAVYFCATDGYGDWFTYWGQGTLVTVSS VL: DIQMTQSPASLSASLGETVTIECRASEDIYSNLAWYQQKPGNSPQLLIYDANILADGVPSRFSGSGSGTQYSLKINSLQSEDVASYFCQQYNNYPPFTFGAGTKLELKRA | reduced ligand FGF7 dependent reporter activation to a ligand-free level | selectively bind to both human FGFR2 IIIb and FGFR2 IIIc
